US20240344138A1, “TARGETED THERAPIES IN CANCER” (Feng Biosciences, Inc, priority 2021, published 2024)

How the values were obtained:
[1] = system: castration-resistant metastatic prostate cancer; assay: Third-line clinical trial of navicixizumab/chemotherapy or navicixizumab/PARP inhibitor, outcome by TME phenotype; type: in vivo, human; settings: plus chemotherapy group
Procedure: A clinical trial is run to determine whether castration-resistant metastatic prostate cancer tumor microenvironment phenotypes correlate to clinical responses when patients are treated with a combination of Navicixizumab/chemotherapy or Navicixizumab/PARP inhibitor in the third-line setting. […] Patients receive either Navicixizumab/chemotherapy (BRCA WT) or Navicixizumab/PARP inhibitor (BRCA mutant). RNA gene signatures are analyzed from tumor samples acquired before any treatments and TME phenotypes are determined. Patients are followed for clinical response, progression-free survival and overall survival. […] BRCA WT prostate cancer patients receive a regimen of Navicixizumab plus chemotherapy (e.g., docetaxel, cabazitaxel etc.). BRCA mutant prostate cancer patients receive a regimen of Navicixizumab plus a PARP inhibitor (e.g., Rucaparib, Olaparib, etc.). […] The correlation between each TME phenotype is tested against clinical outcome data. In tumors that are biomarker positive, represented by angiogenic (A) and immune suppressed (IS) phenotypes, the use of Navicixizumab combinations confers benefit in comparison to patients classified as biomarker negative, represented by immune active (IA) and immune desert (ID) TME phenotype classes as shown in the TABLE 29 and TABLE 30.

[2] = system: locally advanced/metastatic HER2-negative breast cancer; assay: Second-line clinical trial of navicixizumab/chemotherapy or navicixizumab/PARP inhibitor, outcome by TME phenotype; type: in vivo, human; settings: plus chemotherapy group
Procedure: A clinical trial is run to determine whether locally advanced/metastatic HER2-negative breast cancer tumor microenvironment phenotypes correlate to clinical responses when patients are treated with a combination of Navicixizumab/chemotherapy or Navicixizumab/PARP inhibitor in the second-line setting. […] Patients receive either Navicixizumab/chemotherapy (BRCA WT and hormone receptor-positive) or Navicixizumab/PARP inhibitor (BRCA mutant or triple-negative for ER/PR/HER2). RNA gene signatures are analyzed from tumor samples acquired before any treatments and TME phenotypes are determined. Patients are followed for clinical response and progression-free survival. […] BRCA WT/hormone receptor-positive/HER2-negative breast cancer patients receive a regimen of Navicixizumab plus chemotherapy (e.g., capecitabine, etc.). BRCA mutant or triple-negative for ER/PR/HER2 breast cancer patients receive a regimen of Navicixizumab plus a PARP inhibitor (e.g., Rucaparib, Olaparib, etc.). […] The correlation between each TME phenotype is tested against clinical outcome data. In biomarker positive tumors, represented by angiogenic (A) and immune suppressed (IS) phenotypes, the use of Navicixizumab combinations confers benefit in comparison to patients classified as biomarker negative, represented by immune active (IA) and immune desert (ID) TME phenotype classes as shown in the TABLE 27 and TABLE 28.

B1: Navicixizumab plus chemotherapy: navicixizumab plus chemotherapy (e.g., capecitabine in breast; docetaxel, cabazitaxel in prostate) (antibody, chains of the INN, looked up, V domains shown)
VH: QVQLVQSGAEVKKPGASVKISCKASGYSFTAYYIHWVKQAPGQGLEWIGYISNYNRATNYNQKFKGRVTFTTDTSTSTAYMELRSLRSDDTAVYYCARDYDYDVGMDYWGQGTLVTVSS
VL: DIVMTQSPDSLAVSLGERATISCRASESVDNYGISFMKWFQQKPGQPPKLLIYAASNQGSGVPDRFSGSGSGTDFTLTISSLQAEDVAVYYCQQSKEVPWTFGGGTKVEIK
VH2: QVQLVQSGAEVKKPGASVKVSCKASGYTFTNYWMHWVRQAPGQGLEWMGDINPSNGRTSYKEKFKRRVTLSVDKSSSTAYMELSSLRSEDTAVYFCTIHYDDKYYPLMDYWGQGTLVTVSS
VL2: DIVMTQSPDSLAVSLGERATISCRASESVDNYGISFMKWFQQKPGQPPKLLIYAASNQGSGVPDRFSGSGSGTDFTLTISSLQAEDVAVYYCQQSKEVPWTFGGGTKVEIK
modifications: plus chemotherapy
For B1, the “ORR (%)” value ([1]; A (n = 10)) was 54%, the “OS (months)” value ([1]; A (n = 10)) was 19.0 months and the “PFS (months)” value ([1]; A (n = 10)) was 13.5 months. For the same molecule, the “ORR (%)” value ([1]; Biomarker Negative (n = 20)) was 34%, the “OS (months)” value ([1]; Biomarker Negative (n = 20)) was 11.9 months and the “PFS (months)” value ([1]; Biomarker Negative (n = 20)) was 9.8 months. For the same molecule, the “ORR (%)” value ([1]; Biomarker Positive (n = 20), BRCA WT) was 56%, the “OS (months)” value ([1]; Biomarker Positive (n = 20)) was 20.1 months and the “PFS (months)” value ([1]; Biomarker Positive (n = 20)) was 14.2 months. The “ORR (%)” value ([1]; IA (n = 10)) was 37%, the “OS (months)” value ([1]; IA (n = 10)) was 12.0 months and the “PFS (months)” value ([1]; IA (n = 10)) was 10.9 months. For the same molecule, the “ORR (%)” value ([1]; ID (n = 10)) was 31%, the “OS (months)” value ([1]; ID (n = 10)) was 11.8 months and the “PFS (months)” value ([1]; ID (n = 10)) was 8.7 months. For the same molecule, the “ORR (%)” value ([1]; IS (n = 10)) was 58%, the “OS (months)” value ([1]; IS (n = 10)) was 21.2 months and the “PFS (months)” value ([1]; IS (n = 10)) was 14.7 months. For the same molecule, the “ORR (%)” value ([2]; A (n = 15)) was 60%, the “PFS (months)” value ([2]; A (n = 15)) was 11.5 months and the “ORR (%)” value ([2]; Biomarker Negative (n = 30)) was 20%. For the same molecule, the “PFS (months)” value ([2]; Biomarker Negative (n = 30)) was 5.7 months, the “ORR (%)” value ([2]; Biomarker Positive (n = 30), BRCA WT, hormone receptor-positive) was 63.4% and the “PFS (months)” value ([2]; Biomarker Positive (n = 30)) was 12.3 months. For the same molecule, the “ORR (%)” value ([2]; IA (n = 15)) was 26.7%, the “PFS (months)” value ([2]; IA (n = 15)) was 6.0 months and the “ORR (%)” value ([2]; ID (n = 15)) was 13.3%. For the same molecule, the “PFS (months)” value ([2]; ID (n = 15)) was 5.4 months, the “ORR (%)” value ([2]; IS (n = 15)) was 66.7% and the “PFS (months)” value ([2]; IS (n = 15)) was 13.1 months.
